Experimental data taken from US20100035363A1.

Tests used:
[1] = target: biotin-labeled RSV-IQN57 (Respiratory Syncytial Virus (F1 part)); experiment: time-resolved FRET competition, IQN57-APC/C45-Eu assay; competitor C45-Eu
[2] = target: biotin-labeled RSV-IQN51 (Respiratory Syncytial Virus (F1 part)); experiment: time-resolved FRET competition, IQN51-APC/C39-Eu assay; competitor C39-Eu

| Substance | IC50 [1] [µM] | IC50 [2] [µM] |
| --- | --- | --- |
| HIV-C34 (peptide) | > 10 | > 10 |
| HIV-T20 (peptide) | > 10 | > 10 |
